Experimental data: the RNAGym collection of RNA variant scans (doi:10.1093/molbev/msab373)

B1: Azoarcus group I ribozyme (parent)
chain: GUGCCUUGCGCCGGGAAACCACGCAAGGGAUGGUGUCAAAUUCGGCGAAACCUAAGCGCCCGCCCGGGCGUAUGGCAACGCCGAGCCAAGCUUCGGCGCCUGCGCCGAUGAAGGUGUAGAGACUAGACGGCACCCACCUAAGGCAAACGCUAUGGUGAAGGCAUAGUCCAGGGAGUGGCGAAAGUCACACAAACCGG

Variants of: B1
Test: reverse-splicing fitness (ratio to wild type); higher = more active; in vitro selection; Mg2+ level not given
Method in brief: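 An in vitro group I ribozyme library with randomized positions was T7-transcribed and gel-purified. In triplicate, 10 pmol RNA in EPPS pH 7.5 was reacted with 50 pmoles of a 30-nt RNA substrate for 1 h at 37 °C across several added MgCl2 levels (1–48 mM), then stopped with EDTA. Products were reverse transcribed from a substrate-complementary primer, PCR-amplified and sequenced (HiSeq 4000). Fitness is a variant's read proportion after selection over that before, normalised to wild type.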

Variant	reverse-splicing fitness
C82U A111C A120C C150G C169G	0.00626
C82U A111C A120C C150G C169U	0.00884
C82U A111C A120C C150G C169A	0.00879
C82U A111C A120C A145G C150U C169U U176C	0.0139
C82U A111C A120C A145G C150U C169U U176G	0.00546
C82U A111C A120C A145G C150U C169U U176A	0.0156
C82U A111C A120G A145C C150A C169A U176A	0.011
C82U A111C A120G A145C C150A C169A U176C	0.00587
C82U A111C A120G A145C C150A C169A U176G	0.00467
C82U A111C A120G A145C C150G C169U	0.00662
C82U A111C A120G A145C C150G C169A	0.00748
C82U A111C A120G A145C C150G C169G	0.00642
C82U A111C A120C C150U C169A U176C	0.0151
C82U A111C A120C C150U C169A U176A	0.0151
C82U A111C A120C C150U C169A U176G	0.00672
C82U A111C A120C A145U C169G U176A	0.013
C82U A111C A120C A145U C169G U176G	0.00515
C82U A111C A120C A145U C169G U176C	0.0132
C82U A111C A120G A145C C150G C169U U176A	0.00949
C82U A111C A120G A145C C150G C169U U176C	0.00897
C82U A111C A120G A145C C150G C169U U176G	0.0039

Variant	reverse-splicing fitness
C82U A111C A120G A145C C150U C169A U176G	0.00505
C82U A111C A120G A145C C150U C169A U176A	0.00813
C82U A111C A120G A145C C150U C169A U176C	0.00554
C82U A111C A120G A145C C169U U176A	0.0137
C82U A111C A120G A145C C169U U176C	0.00886
C82U A111C A120G A145C C169U U176G	0.00308
C82U A111C A120C A145G C150A	0.01
C82U A111C A120C A145G C150U	0.0229
C82U A111C A120C A145G C150G	0.0102
C82U A111C A120C A145U C150A C169A U176C	0.00844
C82U A111C A120C A145U C150A C169A U176G	0.00614
C82U A111C A120C A145U C150A C169A U176A	0.0117
C82U A111C A120C C150A U176A	0.0109
C82U A111C A120C C150A U176C	0.022
C82U A111C A120C C150A U176G	0.00688
C82U A111C A120C C150U C169U	0.0109
C82U A111C A120C C150U C169G	0.0078
C82U A111C A120C C150U C169A	0.00816
C82U A111C A120C A145G C150G C169A	0.0079
C82U A111C A120C A145G C150G C169G	0.00708
C82U A111C A120C A145G C150G C169U	0.00816

Variant	reverse-splicing fitness
C82U A111C A120C C150A C169G U176A	0.0161
C82U A111C A120C C150A C169G U176G	0.00704
C82U A111C A120C C150A C169G U176C	0.0184
C82U A111C A120C C169A U176A	0.016
C82U A111C A120C C169A U176C	0.0189
C82U A111C A120C C169A U176G	0.00546
C82U A111C A120C C150U C169G U176C	0.0153
C82U A111C A120C C150U C169G U176A	0.0121
C82U A111C A120C C150U C169G U176G	0.00553
C82U	0.643
C82U A111C A120C A145U C150A C169U U176C	0.014
C82U A111C A120C A145U C150A C169U U176A	0.0184
C82U A111C A120C A145U C150A C169U U176G	0.00706
C82U A111C A120C A145C C150A C169G U176G	0.00588
C82U A111C A120C A145C C150A C169G U176A	0.0253
C82U A111C A120C A145C C150A C169G U176C	0.0151
C82U A111C A120C A145U C150A C169G U176C	0.015
C82U A111C A120C A145U C150A C169G U176G	0.00587
C82U A111C A120C A145U C150A C169G U176A	0.0132
C82U A111C A120G A145C C150U C169U U176C	0.0072
C82U A111C A120G A145C C150U C169U U176A	0.0137

Variant	reverse-splicing fitness
C82U A111C A120G A145C C150U C169U U176G	0.00401
C82U A111C A120C A145G C150G C169G U176C	0.011
C82U A111C A120C A145G C150G C169G U176G	0.00542
C82U A111C A120C A145G C150G C169G U176A	0.00967
C82U A111C A120C A145G C150A C169A U176G	0.00718
C82U A111C A120C A145G C150A C169A U176C	0.0198
C82U A111C A120C A145G C150A C169A U176A	0.0163
C82U A111C A120C A145U C169A U176C	0.0103
C82U A111C A120C A145U C169A U176G	0.00532
C82U A111C A120C A145U C169A U176A	0.0107
C82U A111C A120C C169G U176A	0.0173
C82U A111C A120C C169G U176G	0.00563
C82U A111C A120C C169G U176C	0.0186
C82U A111C A120G A145C C150A U176A	0.00897
C82U A111C A120G A145C C150A U176G	0.00348
C82U A111C A120G A145C C150A U176C	0.00967
C82U A111C A120C A145C C150U C169G U176A	0.0188
C82U A111C A120C A145C C150U C169G U176G	0.00566
C82U A111C A120C A145C C150U C169G U176C	0.0118
C82U A111C A120C A145U C150G C169U U176C	0.0132
